From IntAct's records for PubMed 21236256 come the findings set out here.

First the molecules themselves.
B1: Actin filament-associated protein 1 (Gallus gallus (Chicken)), Q90738 (parent)
chain: MEELIVELRLFLELLDHEYLTSTVREKKAVITNILLRIQSSKGFEIKEHVQKPEVANSLPAPPQMPLPEIPQQWLPPDNGPPPLPTSSLPEGYYEEAVPVSPGKAPEYITSNYDSDAMSSSYESYDEEEEDGKGKKMRHQWPSEEASMDLVKDAKICAFLLRKKRFGQWTKLLCVIKENKLLCYKSSKDQQPQMELLLNDCSITYIPKDSKKKKHELKISHQGADALVLAVQSKEQAEQWLKVIKDVCSNCTGTVDSDGPLSSSPVHKTELEKKLSSERPSSDGEGAVENGITTVCNGKEQVKRKKSSKTEAKGTVTKVTGKKITKIIGLGKKKPSTDEQTSSAEEDVPTCGYLNVLSNNRWRERWCRVKDNKLIFHKDRTDLKTHIVSIPLRGCEVIPGLDSKHPLTFRLLRNGQEVAVLEASSSEDMGRWIGMLLAETGSSTDPGALHYDYIDVEMTASVIQAAKQTFCFMNRRVISTNPYRGSTANGYACPSGMALHYDDVPCINGSFKGKKPPATANGITGKVRTLNSQPKKPESVSCVKRTASNAEQYKYGKNRVEAVAKRLQSKEEELLKRKEALRNRLAQLRKERKDLRAAIEVNAGRKTQVILEDKLKKLEEECKTKEAERVNLELELTEVKESLKKALAGGITLGLAIEPKSGTSSPQSPIFKHRTLENSPISSCDTSDTECSIPVNSAAALKRPPSSNNSPCRGHVLRKAKEWEMKNGT

This test covers variants of B1. The settings on record: with src_chick SRC.
As to P71A, the “effect of a mutation on the interaction” value is recorded as “decreasing interaction”.
